From patent US20240400703A1 (Genmab, published 2024)

What was measured:
[1] = molecular target: His-tagged human recombinant FcγRIa (Sino Biological, cat. no. 10256-H08S-B) (human, UniProt P12314 16-288); test: SPR, His-tagged FcγR captured on anti-His chip, antibody injected
Protocol: (§1) Biacore Series S Sensor Chips CM5 (Cytiva, cat. no. 29104988) were covalently coated with anti-His antibody using amine-coupling and His capture kits (Cytiva, cat. no. BR100050 and cat. no. 29234602) according to the manufacturer's instructions. […] After three start-up cycles of HBS-EP+ buffer, antibody samples were injected for 12 cycles per sample to generate binding curves using antibody concentration ranges of 0 to 3,000 nM for FcγRIa and 0 to 10,000 nM for the other FcγRs.
(§2) Dissociation from the anti-His-coated surface was performed by regeneration of the surface using 10 mM Glycine-HCl pH 1.5 (Cytiva, cat. no. BR100354).

[2] = molecular target: T1, His-tagged human recombinant FcγRIIIa 176-Val (Sino Biological, cat. no. 10389-H27H1-B) (human, UniProt P08637 17-208); test: as above
T1 construct: also called FcγRIIIa[V]
Protocol: as §1, §2

[3] = molecular target: T2, His-tagged human recombinant FcγRIIa 167-His (Sino Biological, cat. no. 10374-H08H1) (human, UniProt P12318 34-218); test: as above
T2 construct: also called FcγRIIa[H]
T2 sequence (looked up): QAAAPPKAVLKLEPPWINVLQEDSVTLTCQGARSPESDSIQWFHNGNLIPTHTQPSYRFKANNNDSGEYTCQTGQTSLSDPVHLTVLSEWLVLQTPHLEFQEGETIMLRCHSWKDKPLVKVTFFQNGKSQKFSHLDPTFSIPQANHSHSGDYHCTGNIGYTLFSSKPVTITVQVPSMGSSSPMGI
Protocol: as §1, §2

[4] = molecular target: T3, His-tagged human recombinant FcγRIIb (Sino Biological, cat. no. 10259-H27H-B) (human, UniProt P31994 43-217); test: as above
T3 construct: also called FcγRII2b [sic]
T3 sequence (looked up): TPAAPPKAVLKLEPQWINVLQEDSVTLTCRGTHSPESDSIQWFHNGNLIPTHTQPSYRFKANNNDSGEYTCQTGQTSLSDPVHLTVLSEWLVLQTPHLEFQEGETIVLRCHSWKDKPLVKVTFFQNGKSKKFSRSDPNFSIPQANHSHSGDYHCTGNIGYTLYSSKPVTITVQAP
Protocol: as §1, §2

[5] = molecular target: T4, His-tagged human recombinant FcγRIIIa 176-Phe (Sino Biological, cat. no. 10389-H27H) (human, UniProt P08637 17-208); test: as above
T4 construct: also called FcγRIIIa[F]
Protocol: as §1, §2

[6] = molecular target: T5, His-tagged human recombinant FcγRIIa 167-Arg (Sino Biological, cat. no. 10374-H27H) (human, UniProt P12318 34-218); test: as above
T5 construct: also called FcγRIIa[R]
T5 sequence (looked up): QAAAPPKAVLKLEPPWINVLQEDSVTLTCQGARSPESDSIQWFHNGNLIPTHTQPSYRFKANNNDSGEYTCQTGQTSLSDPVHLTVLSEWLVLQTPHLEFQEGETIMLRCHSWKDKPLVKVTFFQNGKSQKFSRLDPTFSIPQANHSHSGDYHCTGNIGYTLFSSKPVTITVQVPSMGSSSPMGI
Protocol: as §1, §2

[7] = molecular target: T6, human OX40 with mouse CRD2 (human with mouse CRD2, UniProt P43489 29-277); test: flow cytometry, transfected ExpiCHO-S cells, gMFI (PE)
T6 construct: on ExpiCHO-S cells; also called OX40-CRD2mm; Shuffle 2
T6 chain: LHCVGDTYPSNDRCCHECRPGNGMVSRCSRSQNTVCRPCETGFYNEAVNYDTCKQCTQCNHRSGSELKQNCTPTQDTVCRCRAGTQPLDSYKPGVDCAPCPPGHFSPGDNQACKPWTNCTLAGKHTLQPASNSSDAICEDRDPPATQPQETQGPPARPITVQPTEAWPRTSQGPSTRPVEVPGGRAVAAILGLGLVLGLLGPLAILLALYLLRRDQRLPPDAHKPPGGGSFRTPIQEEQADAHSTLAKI

[8] = molecular target: T7, human OX40 with mouse CRD3 (human with mouse CRD3, UniProt P43489 29-277); test: as above
T7 construct: on ExpiCHO-S cells; also called OX40-CRD3mm; Shuffle 3
T7 chain: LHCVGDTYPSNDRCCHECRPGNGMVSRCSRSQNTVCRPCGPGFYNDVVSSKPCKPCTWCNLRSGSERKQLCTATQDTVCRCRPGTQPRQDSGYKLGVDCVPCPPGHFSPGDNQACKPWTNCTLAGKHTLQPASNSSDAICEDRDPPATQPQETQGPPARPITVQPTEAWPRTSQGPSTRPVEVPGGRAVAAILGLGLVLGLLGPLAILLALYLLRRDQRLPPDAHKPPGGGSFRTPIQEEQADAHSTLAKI

[9] = molecular target: T8, human OX40 with mouse CRD1 (human with mouse CRD1, UniProt P43489 29-277); test: as above
T8 construct: on ExpiCHO-S cells; also called OX40-CRD1mm; Shuffle 1
T8 chain: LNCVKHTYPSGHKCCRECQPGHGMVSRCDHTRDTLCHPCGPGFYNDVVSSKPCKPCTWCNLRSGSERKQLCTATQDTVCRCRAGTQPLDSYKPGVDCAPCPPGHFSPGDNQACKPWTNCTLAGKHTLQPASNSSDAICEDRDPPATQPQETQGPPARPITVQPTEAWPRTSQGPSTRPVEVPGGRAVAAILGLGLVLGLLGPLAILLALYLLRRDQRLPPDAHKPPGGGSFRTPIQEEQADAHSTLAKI

[10] = molecular target: T9, human OX40 with mouse CRD4 (human with mouse CRD4, UniProt P43489 29-277); test: as above
T9 construct: on ExpiCHO-S cells; also called OX40-CRD4mm; Shuffle 4
T9 chain: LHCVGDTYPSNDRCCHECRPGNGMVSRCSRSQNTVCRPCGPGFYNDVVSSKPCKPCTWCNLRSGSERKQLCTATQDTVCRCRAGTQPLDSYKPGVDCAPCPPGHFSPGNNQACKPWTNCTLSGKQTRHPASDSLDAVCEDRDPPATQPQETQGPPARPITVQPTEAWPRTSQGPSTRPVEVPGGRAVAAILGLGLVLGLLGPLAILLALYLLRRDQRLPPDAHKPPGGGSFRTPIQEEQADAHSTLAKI
Protocol: The four shuffle constructs, as well as wild-type human and mouse OX40 were transiently expressed on ExpiCHO-S cells using the ExpiFectamine™ CHO Transfection Kit (ThermoFisher, cat. no. A29131), according to the manufacturer's protocol. […] Next, cells were washed twice in FACS buffer 1, were resuspended in a 30 μL solution of viability marker ToPro-3 (Invitrogen, cat. no. T3605, diluted 1:10,000) in FACS buffer 1 supplemented with 2 mM EDTA, and were analyzed on an iQue Screener Plus (Intellicyt Corporation, USA). Data were analyzed using FlowJo software and visualized using GraphPad Prism.

[11] = molecular target: T10, mouse OX40 expressed on ExpiCHO-S cells (mouse, UniProt P47741 20-272); test: as above
T10 construct: full-length entry; also called OX40mm; wild-type mouse OX40
T10 sequence: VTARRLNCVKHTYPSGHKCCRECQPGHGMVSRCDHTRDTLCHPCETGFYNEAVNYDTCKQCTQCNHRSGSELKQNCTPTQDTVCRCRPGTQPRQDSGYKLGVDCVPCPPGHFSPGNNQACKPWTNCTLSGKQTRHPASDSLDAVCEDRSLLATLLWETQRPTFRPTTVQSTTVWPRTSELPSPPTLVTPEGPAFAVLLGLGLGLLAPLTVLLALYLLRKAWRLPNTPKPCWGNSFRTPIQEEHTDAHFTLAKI

[12] = molecular target: T11, cynomolgus monkey OX40 expressed on HEK293F cells (cynomolgus monkey (Macaca fascicularis), UniProt P43489 29-277 (human entry)); test: flow cytometry, OX40-transfected HEK293F cells, gMFI (PE)
T11 construct: full-length entry
T11 chain: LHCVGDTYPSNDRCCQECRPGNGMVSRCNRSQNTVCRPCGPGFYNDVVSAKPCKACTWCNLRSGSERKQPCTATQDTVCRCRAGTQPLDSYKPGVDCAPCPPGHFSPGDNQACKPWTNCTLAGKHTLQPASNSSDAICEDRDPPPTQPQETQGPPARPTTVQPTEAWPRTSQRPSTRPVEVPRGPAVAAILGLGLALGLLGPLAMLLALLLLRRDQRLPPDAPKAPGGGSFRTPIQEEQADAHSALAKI
Protocol: (§3) Transfected cells were seeded in 96-well plates (30,000 cells/well; ThermoFisher, cat. no. 163320) for sequential incubations, with washing steps in between using fluorescence-activated cell sorting (FACS) buffer 1 (phosphate buffered saline [PBS; Lonza, cat. no. BE17-517Q] supplemented with 0.1% bovine serum albumin [BSA; Roche, cat. no. 10735086001] and 0.02% sodium azide [NaN₃; Bio-World, cat. no. 41920044-3]) supplemented with 2 mM ethylenediaminetetraacetic acid (EDTA; Sigma-Aldrich, cat. no. 03690). […] Cells were then washed using EDTA-supplemented FACS buffer 1, resuspended in a 30 μL solution of viability marker ToPro-3 (Invitrogen, cat. no. T3605, diluted 1:10,000) in EDTA-supplemented FACS buffer 1, and subsequently analyzed on an iQue® 3 flow cytometer (Satorius). Data were analyzed using FlowJo software and were visualized using GraphPad Prism.

[13] = molecular target: T12, human OX40 expressed on cells (human, UniProt P43489 29-277); test: as above
T12 construct: also called CD134; TNFRSF4
T12 sequence: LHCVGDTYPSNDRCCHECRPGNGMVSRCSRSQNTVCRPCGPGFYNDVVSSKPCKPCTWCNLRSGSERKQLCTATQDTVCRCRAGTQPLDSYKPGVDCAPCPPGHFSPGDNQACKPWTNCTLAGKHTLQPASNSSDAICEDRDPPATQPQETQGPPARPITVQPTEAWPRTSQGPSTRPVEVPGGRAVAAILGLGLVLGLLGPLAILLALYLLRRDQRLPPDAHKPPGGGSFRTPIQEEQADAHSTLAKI
Protocol: as §3

[14] = molecular target: T13, human FcγRIa expressed on cells (human, UniProt P12314 16-374); test: flow cytometry, FcγRIa-expressing human monocyte-derived M2c-like macrophages, 15 min
T13 construct: whole, on cells; also called FcγR1a; CD64

[15] = molecular target: T12, human OX40 expressed on cells; test: flow cytometry, human T cells activated 2 days with anti-CD3/CD28 beads, 2 µg/mL sOX40L, anti-mouse Fc detection
Protocol: Stimulated PBMCs were pelleted, resuspended in FACS buffer 2 (DPBS with 2% heat-inactivated FBS [Sigma-Aldrich, cat. no. F7524] and 2 mM EDTA [Sigma-Aldrich, cat. no. 03690]), and seeded (100,000 cells/well) in round-bottom 96-well plates (VWR International GmbH, cat. no. 734-197). […] Next, cells were washed twice in FACS buffer, and incubated with 30 μL of the antibody panel described in Table 11 diluted in FACS buffer 2 containing 1:1,500 Fixable Viability Stain eFluor 780 at 4° C. for 20 min, protected from light. The cells were subsequently washed twice with 120-150 μL FACS buffer 2 and measured on a BD FACSCelesta flow cytometer using a BD High Throughput sampler and subsequent analysis was done using FlowJo software.

Chain of His-tagged human recombinant FcγRIa (Sino Biological, cat. no. 10256-H08S-B) (P12314 16-288 limits assumed, stated change not applied): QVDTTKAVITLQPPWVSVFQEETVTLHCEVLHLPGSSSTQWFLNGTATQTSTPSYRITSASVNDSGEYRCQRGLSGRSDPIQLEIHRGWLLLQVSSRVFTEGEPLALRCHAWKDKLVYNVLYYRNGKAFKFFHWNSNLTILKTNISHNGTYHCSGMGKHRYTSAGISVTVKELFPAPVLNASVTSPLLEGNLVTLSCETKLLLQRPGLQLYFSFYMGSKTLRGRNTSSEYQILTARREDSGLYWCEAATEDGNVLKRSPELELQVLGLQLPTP
T1 sequence (P08637 17-208 F176V limits assumed): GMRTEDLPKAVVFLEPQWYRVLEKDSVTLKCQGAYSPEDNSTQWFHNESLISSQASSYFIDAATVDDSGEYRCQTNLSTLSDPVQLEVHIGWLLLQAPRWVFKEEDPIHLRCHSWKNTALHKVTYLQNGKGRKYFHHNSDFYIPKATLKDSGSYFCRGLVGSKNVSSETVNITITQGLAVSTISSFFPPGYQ
T4 sequence (P08637 17-208 limits assumed): as the sequence (P08637 17-208 F176V limits assumed) above, with V160F counted along it
T13 sequence (P12314 16-374): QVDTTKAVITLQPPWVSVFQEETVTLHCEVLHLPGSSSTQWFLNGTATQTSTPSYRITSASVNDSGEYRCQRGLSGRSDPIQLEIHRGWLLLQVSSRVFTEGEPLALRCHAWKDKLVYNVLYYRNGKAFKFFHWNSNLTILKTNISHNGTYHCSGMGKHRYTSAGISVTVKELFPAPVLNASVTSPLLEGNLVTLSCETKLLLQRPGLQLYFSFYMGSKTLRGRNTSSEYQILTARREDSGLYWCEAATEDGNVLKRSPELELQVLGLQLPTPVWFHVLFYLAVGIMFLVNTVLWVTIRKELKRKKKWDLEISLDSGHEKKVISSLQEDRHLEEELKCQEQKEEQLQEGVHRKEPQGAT

B1: IgG1-CD134-003-HC6LC2-E345R (antibody)
heavy: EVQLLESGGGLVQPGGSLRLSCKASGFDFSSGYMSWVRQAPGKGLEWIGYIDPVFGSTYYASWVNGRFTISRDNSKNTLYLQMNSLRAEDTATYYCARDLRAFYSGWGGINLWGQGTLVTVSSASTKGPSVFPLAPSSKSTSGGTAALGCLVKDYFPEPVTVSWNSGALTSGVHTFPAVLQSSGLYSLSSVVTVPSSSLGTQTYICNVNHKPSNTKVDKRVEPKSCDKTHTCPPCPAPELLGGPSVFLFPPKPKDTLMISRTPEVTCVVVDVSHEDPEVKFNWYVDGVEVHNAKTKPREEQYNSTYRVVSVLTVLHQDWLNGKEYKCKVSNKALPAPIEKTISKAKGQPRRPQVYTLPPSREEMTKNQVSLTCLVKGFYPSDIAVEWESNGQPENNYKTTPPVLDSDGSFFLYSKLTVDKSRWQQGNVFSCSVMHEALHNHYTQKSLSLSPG
light: AAVLTQSPSSLSASVGDRVTITCQSSQIVVNNNFLSWYQQKPGKAPKLLIYDASNLASGVPDRFSGSGSGTDFTFTISSLQPEDIATYYCLGGYDDDAENAFGGGTKVEIKRTVAAPSVFIFPPSDEQLKSGTASVVCLLNNFYPREAKVQWKVDNALQSGNSQESVTEQDSKDSTYSLSSTLTLSKADYEKHKVYACEVTHQGLSSPVTKSFNRGEC
notes: also called variant of IgG1-CD134-003-HC6LC2-RR without Fc-inertness mutation; copies: 2 + 2
- binding result [1]: binds
- binding result [2]: binds
- binding result [3]: binds
- binding result [4]: binds
- binding result [5]: binds
- binding result [6]: binds

B2: IgG1-b12-RR (antibody)
heavy: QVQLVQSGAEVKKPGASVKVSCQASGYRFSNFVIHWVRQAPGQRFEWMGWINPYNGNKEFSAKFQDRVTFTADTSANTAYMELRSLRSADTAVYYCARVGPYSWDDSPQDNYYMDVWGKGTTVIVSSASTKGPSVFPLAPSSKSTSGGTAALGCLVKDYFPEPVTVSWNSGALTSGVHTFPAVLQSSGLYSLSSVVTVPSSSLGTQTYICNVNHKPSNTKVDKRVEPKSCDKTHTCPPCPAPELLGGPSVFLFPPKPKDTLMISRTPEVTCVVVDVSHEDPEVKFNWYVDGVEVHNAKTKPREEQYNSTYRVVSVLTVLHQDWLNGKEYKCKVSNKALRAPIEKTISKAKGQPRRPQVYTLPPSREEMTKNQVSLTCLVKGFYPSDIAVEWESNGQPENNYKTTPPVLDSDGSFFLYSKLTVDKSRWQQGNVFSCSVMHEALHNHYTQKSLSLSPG
VL: EIVLTQSPGTLSLSPGERATFSCRSSHSIRSRRVAWYQHKPGQAPRLVIHGVSNRASGISDRFSGSGSGTDFTLTITRVEPEDFALYYCQVYGASSYTFGQGTKLERK
notes: also called IgG1-b12-P329R-E345R
- binding result [7]: no binding (tested: 50 µg/mL)
- binding result [8]: no binding (tested: 50 µg/mL)
- binding result [9]: no binding (tested: 50 µg/mL)
- binding result [10]: no binding (tested: 50 µg/mL)
- binding result [11]: no binding (tested: 50 µg/mL)
- binding result [12]: no binding (tested: 50 µg/mL)
- binding result [13]: no binding (tested: 50 µg/mL)
- binding result [14]: no binding (tested: 10 µg/mL)

B3: murine Fc-tagged human sOX40L (Sino Biological, cat. no. 13127-H04H) (Fc fusion, UniProt P23510 51-183, looked up)
chain: QVSHRYPRIQSIKVQFTEYKKEKGFILTSQKEDEIMKVQNNSVIINCDGFYLISLKGYFSQEVNISLHYQKDEEPLFQLKKVRSVNSLMVASLTYKDKVYLNVTTDNTSLDDFHVNGGELILIHQNPGEFCVL
notes: bought protein; also called soluble OX40L; not shown: murine Fc tag
- binding result [15]: binds
